# Reference: US20050043234A1 (published 2005)
# Several values for one entry are separate records, joined by “and”; a condition that tells them apart may be missing. Equal entries are not always repeated.
# B1: FGFR3α-IIIc/Fc (Fc fusion, not shown: a dimerising Fc or GST; small tags and cut ends)
# chain: ESLGTEQRVVGRAAEVPGPEPGQQEQLVFGSGDAVELSCPPPGGGPMGPTVWVKDGTGLVPSERVLVGPQRLQVLNASHEDSGAYSCRQRLTQRVLCHFSVRVTDAPSSGDDEDGEDEAEDTGVDTGAPYWTRPERMDKKLLAVPAANTVRFRCPAAGNPTPSISWLKNGREFRGEHRIGGIKLRHQQWSLVMESVVPSDRGNYTCVVENKFGSIRQTYTLDVLERSPHRPILQAGLPANQTAVLGSDVEFHCKVYSDAQPHIQWLKHVEVNGSKVGPDGTPYVTVLKTAGANTTDKELEVLSLHNVTFEDAGEYTCLAGNSIGFSHHSAWLVVLPAEEELVEADEAGSVYAG
# B2: FGFR1α-IIIc/Fc (Fc fusion, not shown: a dimerising Fc or GST; small tags and cut ends)
# chain: RPSPTLPEQAQPWGAPVEVESFLVHPGDLLQLRCRLRDDVQSINWLRDGVQLAESNRTRITGEEVEVQDSVPADSGLYACVTSSPSGSDTTYFSVNVSDALPSSEDDDDDDDSSSEEKETDNTKPNRMPVAPYWTSPEKMEKKLHAVPAAKTVKFKCPSSGTPNPTLRWLKNGKEFKPDHRIGGYKVRYATWSIIMDSVVPSDKGNYTCIVENEYGSINHTYQLDVVERSPHRPILQAGLPANKTVALGSNVEFMCKVYSDPQPHIQWLKHIEVNGSKIGPDNLPYVQILKTAGVNTTDKEMEVLHLRNVSFEDAGEYTCLAGNSIGLSHHSAWLTVLEALEERPAVMTSPLYLE
# B3: zFGF5 (ligand)
# chain: EENVDFRIHVENQTRARDDVSRKQLRLYQLYSRTSGKHIQVLGRRISARGEDGDKYAQLLVETDTFGSQVRIKGKETEFYLCMNRKGKLVGKPDGTSKECVFIEKVLENNYTALMSAKYSGWYVGFTKKGRPRKGPKTRENQQDVHFMKRYPKGQPELQKPFKYTTVTKRSRRIRPTHPA
# Assays:
# Assay in all cases: cell-based or functional assay
# zFGF5 = molecular target: B3
# FGFR2α-IIIc [1] = molecular target: FGFR2α-IIIc
# FGFR3α-IIIc [2] = molecular target: FGFR3α-IIIc
# FGFR1α-IIIb = molecular target: FGFR1α-IIIb
# FGFR1α-IIIc = molecular target: FGFR1α-IIIc
# FGFR2α-IIIb = molecular target: FGFR2α-IIIb
# FGFR3α-IIIb = molecular target: FGFR3α-IIIb
# FGFR2α-IIIc [3] = molecular target: FGFR2α-IIIc; remark: listed apart in the source
# FGFR3α-IIIc [4] = molecular target: FGFR3α-IIIc; remark: listed apart in the source
binder,measurement,setting,value
B1,"Cell Proliferation (percent of control), BAF3/FGFR3α-IIIc cells with zFGF5, soluble receptor at 0 fold-excess",zFGF5,100 percent of control
same,"Cell Proliferation (percent of control), BAF3/FGFR3α-IIIc cells with zFGF5, soluble receptor at 0.8 fold-excess",zFGF5,85 percent of control
same,"Cell Proliferation (percent of control), BAF3/FGFR3α-IIIc cells with zFGF5, soluble receptor at 1.6 fold-excess",zFGF5,66 percent of control
same,"Cell Proliferation (percent of control), BAF3/FGFR3α-IIIc cells with zFGF5, soluble receptor at 3.2 fold-excess",zFGF5,37 percent of control
same,"Cell Proliferation (percent of control), BAF3/FGFR3α-IIIc cells with zFGF5, soluble receptor at 6.3 fold-excess",zFGF5,5 percent of control
same,"Cell Proliferation (percent of control), BAF3/FGFR3α-IIIc cells with zFGF5, soluble receptor at 12.5 fold-excess",zFGF5,1 percent of control
same,"Cell Proliferation (percent of control), BAF3/FGFR3α-IIIc cells with zFGF5, soluble receptor at 25 fold-excess",zFGF5,0.2 percent of control
same,"Cell Proliferation (percent of control), BAF3/FGFR3α-IIIc cells with zFGF5, soluble receptor at 50 fold-excess",zFGF5,0 percent of control
same,"Cell Proliferation (percent of control), BAF3/FGFR3α-IIIc cells with zFGF5, soluble receptor at 100 fold-excess",zFGF5,0 percent of control
B2,"Cell Proliferation (percent of control), BAF3/FGFR3α-IIIc cells with zFGF5, soluble receptor at 0 fold-excess",zFGF5,100 percent of control
same,"Cell Proliferation (percent of control), BAF3/FGFR3α-IIIc cells with zFGF5, soluble receptor at 7.5 fold-excess",zFGF5,92 percent of control
same,"Cell Proliferation (percent of control), BAF3/FGFR3α-IIIc cells with zFGF5, soluble receptor at 15.4 fold-excess",zFGF5,96 percent of control
same,"Cell Proliferation (percent of control), BAF3/FGFR3α-IIIc cells with zFGF5, soluble receptor at 31 fold-excess",zFGF5,99 percent of control
same,"Cell Proliferation (percent of control), BAF3/FGFR3α-IIIc cells with zFGF5, soluble receptor at 62.5 fold-excess",zFGF5,104 percent of control
same,"Cell Proliferation (percent of control), BAF3/FGFR3α-IIIc cells with zFGF5, soluble receptor at 125 fold-excess",zFGF5,101 percent of control
same,"Cell Proliferation (percent of control), BAF3/FGFR3α-IIIc cells with zFGF5, soluble receptor at 250 fold-excess",zFGF5,100 percent of control
same,"Cell Proliferation (percent of control), BAF3/FGFR3α-IIIc cells with zFGF5, soluble receptor at 500 fold-excess",zFGF5,102 percent of control
same,"Cell Proliferation (percent of control), BAF3/FGFR3α-IIIc cells with zFGF5, soluble receptor at 1000 fold-excess",zFGF5,92.3 percent of control
B3,"Alamar Blue Units (cell proliferation), zFGF5 at 1.6 ng/ml",FGFR2α-IIIc [1],241 Alamar Blue Units
same,"Alamar Blue Units (cell proliferation), zFGF5 at 3.1 ng/ml",FGFR2α-IIIc [1],480 Alamar Blue Units
same,"Alamar Blue Units (cell proliferation), zFGF5 at 6.2 ng/ml",FGFR2α-IIIc [1],715 Alamar Blue Units
same,"Alamar Blue Units (cell proliferation), zFGF5 at 12.5 ng/ml",FGFR2α-IIIc [1],977 Alamar Blue Units
same,"Alamar Blue Units (cell proliferation), zFGF5 at 25 ng/ml",FGFR2α-IIIc [1],1310 Alamar Blue Units
same,"Alamar Blue Units (cell proliferation), zFGF5 at 50 ng/ml",FGFR2α-IIIc [1],1520 Alamar Blue Units
same,"Alamar Blue Units (cell proliferation), zFGF5 at 100 ng/ml",FGFR2α-IIIc [1],1720 Alamar Blue Units
same,"Alamar Blue Units (cell proliferation), zFGF5 at 200 ng/ml",FGFR2α-IIIc [1],1790 Alamar Blue Units
same,"Alamar Blue Units (cell proliferation), zFGF5 at 1.6 ng/ml",FGFR3α-IIIc [2],1400 Alamar Blue Units
same,"Alamar Blue Units (cell proliferation), zFGF5 at 3.1 ng/ml",FGFR3α-IIIc [2],2000 Alamar Blue Units
same,"Alamar Blue Units (cell proliferation), zFGF5 at 6.2 ng/ml",FGFR3α-IIIc [2],2580 Alamar Blue Units
same,"Alamar Blue Units (cell proliferation), zFGF5 at 12.5 ng/ml",FGFR3α-IIIc [2],3200 Alamar Blue Units
same,"Alamar Blue Units (cell proliferation), zFGF5 at 25 ng/ml",FGFR3α-IIIc [2],3760 Alamar Blue Units
same,"Alamar Blue Units (cell proliferation), zFGF5 at 50 ng/ml",FGFR3α-IIIc [2],3960 Alamar Blue Units
same,"Alamar Blue Units (cell proliferation), zFGF5 at 100 ng/ml",FGFR3α-IIIc [2],4120 Alamar Blue Units
same,"Alamar Blue Units (cell proliferation), zFGF5 at 200 ng/ml",FGFR3α-IIIc [2],4200 Alamar Blue Units
same,"Alamar Blue Units (cell proliferation), zFGF5 at 1.6 ng/ml",FGFR1α-IIIb,0 Alamar Blue Units
same,"Alamar Blue Units (cell proliferation), zFGF5 at 3.1 ng/ml",FGFR1α-IIIb,1.7 Alamar Blue Units
same,"Alamar Blue Units (cell proliferation), zFGF5 at 6.2 ng/ml",FGFR1α-IIIb,1.3 Alamar Blue Units
same,"Alamar Blue Units (cell proliferation), zFGF5 at 12.5 ng/ml",FGFR1α-IIIb,0 Alamar Blue Units
same,"Alamar Blue Units (cell proliferation), zFGF5 at 25 ng/ml",FGFR1α-IIIb,10.9 Alamar Blue Units
same,"Alamar Blue Units (cell proliferation), zFGF5 at 50 ng/ml",FGFR1α-IIIb,0 Alamar Blue Units
same,"Alamar Blue Units (cell proliferation), zFGF5 at 100 ng/ml",FGFR1α-IIIb,0 Alamar Blue Units
same,"Alamar Blue Units (cell proliferation), zFGF5 at 200 ng/ml",FGFR1α-IIIb,0 Alamar Blue Units
same,"Alamar Blue Units (cell proliferation), zFGF5 at 1.6 ng/ml",FGFR1α-IIIc,2.6 Alamar Blue Units
same,"Alamar Blue Units (cell proliferation), zFGF5 at 3.1 ng/ml",FGFR1α-IIIc,4.2 Alamar Blue Units
same,"Alamar Blue Units (cell proliferation), zFGF5 at 6.2 ng/ml",FGFR1α-IIIc,14.2 Alamar Blue Units
same,"Alamar Blue Units (cell proliferation), zFGF5 at 12.5 ng/ml",FGFR1α-IIIc,29.9 Alamar Blue Units
same,"Alamar Blue Units (cell proliferation), zFGF5 at 25 ng/ml",FGFR1α-IIIc,86 Alamar Blue Units
same,"Alamar Blue Units (cell proliferation), zFGF5 at 50 ng/ml",FGFR1α-IIIc,224 Alamar Blue Units
same,"Alamar Blue Units (cell proliferation), zFGF5 at 100 ng/ml",FGFR1α-IIIc,488 Alamar Blue Units
same,"Alamar Blue Units (cell proliferation), zFGF5 at 200 ng/ml",FGFR1α-IIIc,912 Alamar Blue Units
same,"Alamar Blue Units (cell proliferation), zFGF5 at 1.6 ng/ml",FGFR2α-IIIb,0.2 Alamar Blue Units
same,"Alamar Blue Units (cell proliferation), zFGF5 at 3.1 ng/ml",FGFR2α-IIIb,0.06 Alamar Blue Units
same,"Alamar Blue Units (cell proliferation), zFGF5 at 6.2 ng/ml",FGFR2α-IIIb,0 Alamar Blue Units
same,"Alamar Blue Units (cell proliferation), zFGF5 at 12.5 ng/ml",FGFR2α-IIIb,0.4 Alamar Blue Units
same,"Alamar Blue Units (cell proliferation), zFGF5 at 25 ng/ml",FGFR2α-IIIb,0.2 Alamar Blue Units
same,"Alamar Blue Units (cell proliferation), zFGF5 at 50 ng/ml",FGFR2α-IIIb,0.5 Alamar Blue Units
same,"Alamar Blue Units (cell proliferation), zFGF5 at 100 ng/ml",FGFR2α-IIIb,1.3 Alamar Blue Units
same,"Alamar Blue Units (cell proliferation), zFGF5 at 200 ng/ml",FGFR2α-IIIb,1.3 Alamar Blue Units
same,"Alamar Blue Units (cell proliferation), zFGF5 at 1.6 ng/ml",FGFR3α-IIIb,0 Alamar Blue Units
same,"Alamar Blue Units (cell proliferation), zFGF5 at 3.1 ng/ml",FGFR3α-IIIb,0 Alamar Blue Units
same,"Alamar Blue Units (cell proliferation), zFGF5 at 6.2 ng/ml",FGFR3α-IIIb,0 Alamar Blue Units
same,"Alamar Blue Units (cell proliferation), zFGF5 at 12.5 ng/ml",FGFR3α-IIIb,0 Alamar Blue Units
same,"Alamar Blue Units (cell proliferation), zFGF5 at 25 ng/ml",FGFR3α-IIIb,1.4 Alamar Blue Units
same,"Alamar Blue Units (cell proliferation), zFGF5 at 50 ng/ml",FGFR3α-IIIb,19 Alamar Blue Units
same,"Alamar Blue Units (cell proliferation), zFGF5 at 100 ng/ml",FGFR3α-IIIb,189 Alamar Blue Units
same,"Alamar Blue Units (cell proliferation), zFGF5 at 200 ng/ml",FGFR3α-IIIb,472 Alamar Blue Units
same,EC50 of cell proliferation response,FGFR2α-IIIc [3],~10 ng/mL and ~20 ng/mL
same,EC50 of cell proliferation response,FGFR3α-IIIc [4],~1 ng/mL and ~2 ng/mL
